# Patent publication US20210347846A1
# How the values were obtained:
# [1] = target: transient receptor potential melastatin subfamily member 4 (TRPM4), mouse (mouse) (UniProt Q7TN37); test: co-immunoprecipitation with anti-TRPM4 antibody from cortical lysates of mice 2 h after i.p. injection of small-molecule compound P4 (40 mg/kg), against control mice
# [2] = target: transient receptor potential melastatin subfamily member 4 (TRPM4), mouse (mouse) (UniProt Q7TN37); test: co-immunoprecipitation with anti-TRPM4 antibody from cortical lysates of mice 6 h after i.p. injection of small-molecule compound P4 (40 mg/kg), against control mice
# UniProt Q7TN37, sequence (Q7TN37 whole entry): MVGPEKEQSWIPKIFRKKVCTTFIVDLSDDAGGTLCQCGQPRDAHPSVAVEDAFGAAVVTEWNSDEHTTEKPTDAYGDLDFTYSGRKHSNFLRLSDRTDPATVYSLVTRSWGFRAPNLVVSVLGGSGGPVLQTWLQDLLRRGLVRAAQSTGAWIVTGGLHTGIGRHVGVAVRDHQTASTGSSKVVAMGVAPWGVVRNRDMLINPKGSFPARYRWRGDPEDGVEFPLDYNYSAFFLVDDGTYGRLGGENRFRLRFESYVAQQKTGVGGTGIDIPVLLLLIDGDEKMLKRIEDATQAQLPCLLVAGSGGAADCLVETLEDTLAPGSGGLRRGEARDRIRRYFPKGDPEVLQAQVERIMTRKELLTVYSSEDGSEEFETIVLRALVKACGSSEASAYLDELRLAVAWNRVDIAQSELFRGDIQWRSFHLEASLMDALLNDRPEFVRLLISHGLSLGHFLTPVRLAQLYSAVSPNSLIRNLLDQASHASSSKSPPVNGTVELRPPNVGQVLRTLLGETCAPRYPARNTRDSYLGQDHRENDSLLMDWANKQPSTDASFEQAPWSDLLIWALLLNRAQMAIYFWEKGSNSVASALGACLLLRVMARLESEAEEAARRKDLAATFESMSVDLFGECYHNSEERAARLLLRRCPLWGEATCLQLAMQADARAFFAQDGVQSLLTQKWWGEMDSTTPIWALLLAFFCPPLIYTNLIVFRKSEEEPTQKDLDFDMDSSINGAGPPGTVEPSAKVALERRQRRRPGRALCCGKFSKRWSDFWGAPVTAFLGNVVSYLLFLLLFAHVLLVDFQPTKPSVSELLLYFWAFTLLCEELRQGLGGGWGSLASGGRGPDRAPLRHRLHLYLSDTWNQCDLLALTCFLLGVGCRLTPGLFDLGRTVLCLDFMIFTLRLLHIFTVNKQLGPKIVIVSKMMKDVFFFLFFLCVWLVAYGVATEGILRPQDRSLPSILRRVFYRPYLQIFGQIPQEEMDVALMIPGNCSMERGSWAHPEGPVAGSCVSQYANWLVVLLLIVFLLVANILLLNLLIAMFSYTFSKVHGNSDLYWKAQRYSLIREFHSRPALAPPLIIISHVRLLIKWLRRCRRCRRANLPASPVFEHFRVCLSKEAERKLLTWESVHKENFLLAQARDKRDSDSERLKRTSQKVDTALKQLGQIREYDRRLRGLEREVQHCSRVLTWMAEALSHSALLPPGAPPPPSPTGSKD
substance,measurement,setting,value
"GRIN2B subunit of the NMDA receptor, mouse (from UniProt Q01097 27-1482)",reduction in NMDA receptor/TRPM4 complex formation,[1],51%
same,reduction in NMDA receptor/TRPM4 complex formation,[2],61%
